Reference: publication PMC8054193

Molecular target: Strep-SUMO-Bos1

Chain of Ssa1 (P10591 whole entry): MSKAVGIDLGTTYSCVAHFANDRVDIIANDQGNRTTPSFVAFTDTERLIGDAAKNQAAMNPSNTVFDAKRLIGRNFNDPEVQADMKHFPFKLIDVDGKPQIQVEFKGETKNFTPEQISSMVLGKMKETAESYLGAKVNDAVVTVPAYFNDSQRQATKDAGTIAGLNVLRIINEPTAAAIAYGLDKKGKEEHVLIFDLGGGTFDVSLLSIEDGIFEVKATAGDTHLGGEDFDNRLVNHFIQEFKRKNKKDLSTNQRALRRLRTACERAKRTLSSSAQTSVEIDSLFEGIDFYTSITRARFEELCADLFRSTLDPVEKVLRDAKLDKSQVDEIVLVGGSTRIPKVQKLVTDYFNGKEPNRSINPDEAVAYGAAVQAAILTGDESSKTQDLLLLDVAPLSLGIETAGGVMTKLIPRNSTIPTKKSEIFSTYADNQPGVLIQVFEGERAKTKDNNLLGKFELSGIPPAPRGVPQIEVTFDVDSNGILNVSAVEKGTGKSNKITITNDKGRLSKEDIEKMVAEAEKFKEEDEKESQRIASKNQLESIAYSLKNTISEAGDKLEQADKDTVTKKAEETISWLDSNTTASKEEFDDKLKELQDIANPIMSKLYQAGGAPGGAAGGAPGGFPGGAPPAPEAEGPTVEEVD

K (Soluble) from the Ssa1 concentration dependence of soluble Bos1 (sedimentation of 3 μM Bos1, Western blot, fit to Equation 2), Ssa1 alone: 0.73 µM
K (Soluble) from the Ssa1 concentration dependence of soluble Bos1 (sedimentation of 3 μM Bos1, Western blot, fit to Equation 2), equimolar Ssa1 and Ydj1: 0.014 µM
Substance: Ssa1 (from UniProt P10591 1-642) (natural protein)
